# Data reported in patent US20120171115A1 (AVIPEP, published 2012).
# B1: AVP07-17 anti-Her2 diabody (other)
# chain: QVQLVQSGAEVKKPGESLKISCKGSGYSFTSYWIAWVRQMPGKGLEYMGLIYPGDSDTKYSPSFQGQVTISVDKSVSTAYLQWSSLKPSDSAVYFCARHDVGYCSSSNCAKWPEYFQHWGQGTLVTVSSGGGGSQSVLTQPPSVSAAPGQKVTISCSGSSSNIGNNYVSWYQQLPGTVPKLLIYGHTNRPAGVPDRFSGSKSGTSASLAISGFRSEDEADYYCAAWDDSLSGWVFGGGTKLTVLGAAAEQKLISEEDLNGAAHHHHHH
# notes: Diabody: homodimer of VH-Gly4Ser-VL chains from a human anti-HER2 mAb, with a C-terminal His6 tag from cloning; also called AVP07-17 Avibody
# Target: recombinant HER2 ectodomain (human, UniProt P04626 23-652)
# Test: column shift assay: gel filtration monitored at A280, diabody pre-incubated with recombinant HER2 ectodomain
# Protocol: Binding activity to soluble antigen was established by a column shift. […] In the column shift assay, at least two times mole excess of soluble antigen to diabody was incubated for 1 hr at ambient temperature. Binding activity was determined by comparing the resulting diabody/antigen complex peak to the free diabody peak. The elution profiles of the diabody or diabody/antigen complex was monitored either directly though absorbance at 280 nm or, in cases where the diabody was Europium labelled, elution fractions were measured in a Victor time-resolved fluorometer using the Europium mode in the Victor multilabel program wizard.
binder,measurement,value
B1,binding result,binds
